Article PMC4300183, “Cloning and Characterization of a Weissella confusa Dextransucrase and Its Application in High Fibre Baking” (PLoS ONE, 2015)

Substrate: OC[C@H]1O[C@@](CO)(O[C@H]2O[C@H](CO)[C@@H](O)[C@H](O)[C@H]2O)[C@@H](O)[C@@H]1O
Experiment: purified protein
Assay type: biochemical, Weissella confusa
Settings: 20 mM Na-acetate pH 5.4, 2 mM CaCl2, 35 °C, sucrose 3-146 mM, labelled compound

B1: WcE392-rDSR (Wc392-rDSR; recombinant WcE392-DSR dextransucrase) (Weissella confusa) (protein)
chain: DQLATQPAESAEVTQHETPTDSQAPDSVTSLSDTKETVQSSAASVDSSHVATSSASETTSSASETSTKTSSAASSVASSATMLSATSSASSSVDATITDGYHDEGGNWVYYRDGKKLTGRQLIDTFNVYFDEDGHQVKGDWRETDGKRAYYDGQEGRALTETQVVDGAVRGFDADGYEITNGFGQTSNQDTYYFDNDGNHVTGIQVIDGKTYNFDDQGRMLKGIATEVNGTMMYFDDQTGVATPTSDPKFNPELEPVPNQNAQHNAAHGTTPEDFDNMAGYLTADTWYRPNDILDNGETWRESTPTEYRPLIETWWPTKQTQADYVNYMNDALQVSTKTVSAADSEATLTAAADAIQAAIERQITVKQSTDWLRELMAAFVVTQPQWNKSSEDENDDHLQGGALSFENNPDTDANSDYRLMNRTPTNQTGERLYHIDDSLGGYELLLANDVDNSNPQVQAEQLNWLYYLMNFGSITANDPDANFDAIRVDAVDNVDADLLQLAAQYFRDAYGMATNDATSNQHLSILEDWSHNDPAYMNEHGNDQLTMDDYMHTQLIWSLTKSDAQRGKMDRFLDFYLTNRANDNTENEAQPSYSFVRAHDSEVQTVIAEIVTKLHPEAGNGLMPTQAQMDEAFKIYNADQKKAVKEYTHYNMPSAYAMLLTNKDVIPRVYYGDLYTDDGQYMATKSPYFDAIDAMLKARTKYVAGGQTMAVDKNDVLTSVRFGKGAMTASDAGTAETRTEGVGLIISNNHDLKMADSDQVVLHMGIAHANQAFRAVVMTTATGLAIYNDDNAPIRYTDANGDLIFTNADVYGVLNPQVSGFLAMWVPVGASATQDARTAASTEATTDGSAYHSNAALDSQVIFEGFSNFQAMPTTHDEYTNVVLAKHTDLLTDWSVTSVQLAPQYRSSTDGTFLDSIIQNGYAFTDRYDLGFGTPTKYGDDNDLRDVIKSLHANGIQVMADFVPDQLYALPGKELVQVTRTNNMGEPDKNSEIQHLMYVTSTRGGGEYQKQYGGEFLAKLRELYPDLFTTDQISTGKPIDDSVKIKEWSAKYLNGTAIQGRGAGYVLRDAGNNSYYRVTANTGNTNLPNQMLGKPVLTGFQKLADGYHFETLSGSAAKDAFIKDDNGELYYFDNNGVMATGEQKVRGGQYFFLPNGIALTDAFIETEDGHMRYYDKNGQLVVNQYVTDHQANAFRVDADGNVIRSQALTVDGNEQYFGSNGVQAKAQMVRDENGQAHYYAAGNGNMIKNQFILDTDGHWLYADQNGNLARGMTTLNQGTLYFDDQNHQVKDDFVYDADGVHYFNGTNGAEVKNDYAYHNGKWYYFDENGRMVTGLQTINGELRYFGADGAQLKGGQATNQKTNQTYVFDETNGSGKLVTI
notes: secreted by Lactococcus lactis NZ9800 (pNZ8037), Ni-NTA purified; predicted mature 1381 residues, 152 kDa (~160 kDa on SDS-PAGE); precursor printed as 1432 residues, but 4272 bp ORF implies 1423
- Km: 14.7 ± 2.3 mM
- Vmax: 8.2 µmol/min/mg
- kcat: 23.2 ± 1.1 s⁻¹
- kcat/Km: 1600 ± 300 M⁻¹ s⁻¹
